Assay results published in patent US20260242478A1 (published 2026).

B1: Phage-1520 (Peptide-92 library sequence, SEQ ID NO: 1816) (peptide)
peptide: LCAAGAAYPWPMCL
B2: Phage-1521 (Peptide-92 library sequence, SEQ ID NO: 1817) (peptide)
peptide: SCAAGATYEWPICL
B3: Phage-1518 (Peptide-92 library sequence, SEQ ID NO: 1814) (peptide)
peptide: SCAAGAPYPWPECL
B4: Phage-1527 (Peptide-92 library sequence, SEQ ID NO: 1823) (peptide)
peptide: TCSAGFSYKWPWCL
B5: Phage-1528 (Peptide-92 library sequence, SEQ ID NO: 1824) (peptide)
peptide: TCAAGAMWTWPECL
B6: Phage-1517 (peptide, not shown: large carriers)
peptide: TCAAGAYYAWPMCL
B7: Phage-1531 (Peptide-92 library sequence, SEQ ID NO: 1827) (peptide)
peptide: MCTAGATYPWPACL
B8: Phage-1523 (Peptide-92 library sequence, SEQ ID NO: 1819) (peptide)
peptide: SCAAGAQYGWPMCL
B9: Phage-1516 (peptide, not shown: large carriers)
peptide: GCAAGANYPWPLCL
B10: Phage-1519 (Peptide-92 library sequence, SEQ ID NO: 1815) (peptide)
peptide: TCSAGAAYAWPYCL
B11: Phage-1524 (Peptide-92 library sequence, SEQ ID NO: 1820) (peptide)
peptide: WCAAGASYPWPWCL
B12: Phage-1526 (Peptide-92 library sequence, SEQ ID NO: 1822) (peptide)
peptide: SCAAGATFHWPMCF
B13: Phage-1530 (Peptide-92 library sequence, SEQ ID NO: 1826) (peptide)
peptide: LCAAGFNYPWPLCL
B14: Phage-1522 (Peptide-92 library sequence, SEQ ID NO: 1818) (peptide)
peptide: SCAAGAMWPWPVCV
B15: Phage-1529 (Peptide-92 library sequence, SEQ ID NO: 1825) (peptide)
peptide: TCAAGATYPWPECM
B16: Phage-1525 (Peptide-92 library sequence, SEQ ID NO: 1821) (peptide)
peptide: TCTAVFPYEWPRCL
B17: Phage-1515 (peptide, not shown: large carriers)
peptide: SCAAGATYEWPRCL

Tests used:
[1] = target: T1, Anti-CD28 Fab (SEQ ID NOs: 696, 697); test: phage binding ELISA; clonal phage on plate-captured biotinylated anti-CD28 Fab, anti-M13 HRP detection
T1 construct: In the phage ELISA the Fab was biotinylated and captured on neutravidin coated plates
T1 sequence (VH, as listed by the source, chain 1 of 2): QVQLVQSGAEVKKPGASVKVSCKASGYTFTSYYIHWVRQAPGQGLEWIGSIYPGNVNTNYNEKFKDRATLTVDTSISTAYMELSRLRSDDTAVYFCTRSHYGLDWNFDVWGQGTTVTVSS
T1 sequence (VL, as listed by the source, chain 2 of 2): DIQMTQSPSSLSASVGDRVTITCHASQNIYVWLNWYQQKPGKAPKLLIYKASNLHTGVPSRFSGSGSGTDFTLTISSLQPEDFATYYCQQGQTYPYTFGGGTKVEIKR
Experimental: (§1) Clonal phage were harvested as crude supematants and screened via standard ELISAs. […] Prior to the addition of clonal phage, wells were incubated with blocking buffer and CD28 antigen or blocking buffer alone. Without washing or aspirating, clonal phage supematants were then added to the wells and incubated for a short time. Wells were then washed followed by detection of bound phage using a horse radish conjugated anti-M13 antibody.

[2] = target: T1, Anti-CD28 Fab (SEQ ID NOs: 696, 697); test: phage binding ELISA on plate-captured anti-CD28 Fab pre-incubated with CD28 antigen (competitor: CD28)
Experimental: as §1

[3] = target: T2, Anti-CD28 Fab (SEQ ID NOs: 696, 697); test: phage binding ELISA; clonal phage on biotinylated anti-CD28 Fab captured on neutravidin, anti-M13-HRP detection
T2 construct: Biotinylated and captured on neutravidin coated plates in the phage ELISA
T2 sequence (VH, as listed by the source, chain 1 of 2): as the sequence (VH, as listed by the source, chain 1 of 2) above
T2 sequence (VL, as listed by the source, chain 2 of 2): as the sequence (VL, as listed by the source, chain 2 of 2) above
Experimental: as §1

[4] = target: T2, Anti-CD28 Fab (SEQ ID NOs: 696, 697); test: phage binding ELISA on captured anti-CD28 Fab; competitor CD28 antigen pre-incubated in the wells
Experimental: as §1

Binder | Anti-CD28 Fab (SEQ ID NOs: 696, 697) signal [1] | Anti-CD28 Fab signal in the presence of CD28 [2] | Anti-CD28 Fab (SEQ ID NOs: 696, 697) signal [3] | Anti-CD28 Fab signal in the presence of CD28 [4]
B1 | 1.59 | 0.06 | – | –
B2 | 1.59 | 0.05 | – | –
B3 | 1.59 | 0.07 | – | –
B4 | 1.57 | 0.06 | – | –
B5 | 1.57 | 0.07 | – | –
B6 | – | – | 1.59 | 0.07
B7 | 1.56 | 0.07 | – | –
B8 | 1.59 | 0.05 | – | –
B9 | – | – | 1.59 | 0.05
B10 | 1.59 | 0.07 | – | –
B11 | 1.58 | 0.05 | – | –
B12 | 1.57 | 0.09 | – | –
B13 | 1.57 | 0.05 | – | –
B14 | 1.59 | 0.07 | – | –
B15 | 1.57 | 0.06 | – | –
B16 | 1.57 | 0.07 | – | –
B17 | – | – | 1.6 | 0.07
